Columns and labels:
IFNα2a (human) = IFNα2a (human) (UniProt P01563); experiment: cell-based or functional assay
human leukocyte IFN = experiment: cell-based or functional assay

## MEDI-545 (antibody)
IFNα2a (human)
  HERC5 gene expression (TAQMAN, Average) in whole blood of donor 107 with 100 IU IFNα2a + MEDI-545; same donor VEH 1.00, IFN alone 41.12 (relative expression (Average)): 6.29
  HERC5 gene expression (TAQMAN, Average) in whole blood of donor 163 with 100 IU IFNα2a + MEDI-545; same donor VEH 1.05, IFN alone 75.81 (relative expression (Average)): 7.83
  HERC5 gene expression (TAQMAN, Average) in whole blood of donor 175 with 100 IU IFNα2a + MEDI-545; same donor VEH 1.19, IFN alone 74.58 (relative expression (Average)): 6.89
  IFN α2a-induced IFIT1 gene expression in whole blood (TAQMAN), sample 107 IFN + 545 (107 IFN 80.21; 107 VEH 1.00) (relative expression (Average)): 13.1
  IFN α2a-induced IFIT1 gene expression in whole blood (TAQMAN), sample 163 IFN + 545 (163 IFN 51.65; 163 VEH 0.92) (relative expression (Average)): 7.6
  IFN α2a-induced IFIT1 gene expression in whole blood (TAQMAN), sample 175 IFN + 545 (175 IFN 82.98; 175 VEH 1.47) (relative expression (Average)): 8.4
  IFN α2a-induced IFIT3 gene expression in whole blood (TAQMAN), sample 107 IFN + 545 (107 IFN 38.43; 107 VEH 1.00) (relative expression (Average)): 6.78
  IFN α2a-induced IFIT3 gene expression in whole blood (TAQMAN), sample 163 IFN + 545 (163 IFN 25.94; 163 VEH 0.62) (relative expression (Average)): 4.58
  IFN α2a-induced IFIT3 gene expression in whole blood (TAQMAN), sample 175 IFN + 545 (175 IFN 35.02; 175 VEH 1.32) (relative expression (Average)): 5.28
  IFN α2a-induced IL6ST gene expression in whole blood (TAQMAN), sample 107 IFN + 545 (107 IFN 3.54; 107 VEH 1.00) (relative expression (Average)): 2.62
  IFN α2a-induced IL6ST gene expression in whole blood (TAQMAN), sample 163 IFN + 545 (163 IFN 7.69; 163 VEH 2.50) (relative expression (Average)): 4.18
  IFN α2a-induced IL6ST gene expression in whole blood (TAQMAN), sample 175 IFN + 545 (175 IFN 7.62; 175 VEH 1.37) (relative expression (Average)): 2.95
  IFN α2a-induced IRF7 gene expression in whole blood (TAQMAN), sample 107 IFN + 545 (107 IFN 18.53; 107 VEH 1.00) (relative expression (Average)): 3.42
  IFN α2a-induced IRF7 gene expression in whole blood (TAQMAN), sample 163 IFN + 545 (163 IFN 17.16; 163 VEH 0.91) (relative expression (Average)): 2.92
  IFN α2a-induced IRF7 gene expression in whole blood (TAQMAN), sample 175 IFN + 545 (175 IFN 24.65; 175 VEH 1.25) (relative expression (Average)): 2.43
  IFN α2a-induced LY6E gene expression in whole blood (TAQMAN), sample 107 IFN + 545 (107 IFN 19.09; 107 VEH 1.00) (relative expression (Average)): 3.5
  IFN α2a-induced LY6E gene expression in whole blood (TAQMAN), sample 163 IFN + 545 (163 IFN 13.52; 163 VEH 1.02) (relative expression (Average)): 4.8
  IFN α2a-induced LY6E gene expression in whole blood (TAQMAN), sample 175 IFN + 545 (175 IFN 19.32; 175 VEH 1.61) (relative expression (Average)): 3.74
  IFN α2a-induced MARCKS gene expression in whole blood (TAQMAN), sample 163 IFN + 545 (163 IFN 2.59; 163 VEH 0.56) (relative expression (Average)): 1.55
  IFN α2a-induced MARCKS gene expression in whole blood (TAQMAN), sample 175 IFN + 545 (175 IFN 2.59; 175 VEH 0.41) (relative expression (Average)): 0.55
  IFN α2a-induced RAB8B gene expression in whole blood (TAQMAN), sample 163 IFN + 545 (163 IFN 2.20; 163 VEH 0.70) (relative expression (Average)): 1.18
  IFN α2a-induced RAB8B gene expression in whole blood (TAQMAN), sample 175 IFN + 545 (175 IFN 2.63; 175 VEH 0.64) (relative expression (Average)): 1.15
  OAS1 gene expression (TAQMAN, Average) in whole blood of donor 107 with 100 IU IFNα2a + MEDI-545; same donor VEH 1.00, IFN alone 15.11 (relative expression (Average)): 3.45
  OAS1 gene expression (TAQMAN, Average) in whole blood of donor 163 with 100 IU IFNα2a + MEDI-545; same donor VEH 0.77, IFN alone 14.19 (relative expression (Average)): 3.05
  OAS1 gene expression (TAQMAN, Average) in whole blood of donor 175 with 100 IU IFNα2a + MEDI-545; same donor VEH 1.62, IFN alone 22.09 (relative expression (Average)): 4.04
  OAS3 gene expression (TAQMAN, Average) in whole blood of donor 107 with 100 IU IFNα2a + MEDI-545; same donor VEH 1.00, IFN alone 49.04 (relative expression (Average)): 7.03
  OAS3 gene expression (TAQMAN, Average) in whole blood of donor 163 with 100 IU IFNα2a + MEDI-545; same donor VEH 0.49, IFN alone 42.01 (relative expression (Average)): 14.6
  OAS3 gene expression (TAQMAN, Average) in whole blood of donor 175 with 100 IU IFNα2a + MEDI-545; same donor VEH 1.27, IFN alone 37.87 (relative expression (Average)): 3.92
  RSAD2 gene expression (TAQMAN, Average) in whole blood of donor 107 with 100 IU IFNα2a + MEDI-545; same donor VEH 1.00, IFN alone 109.64 (relative expression (Average)): 9.88
  RSAD2 gene expression (TAQMAN, Average) in whole blood of donor 163 with 100 IU IFNα2a + MEDI-545; same donor VEH 0.56, IFN alone 71.47 (relative expression (Average)): 4.39
  RSAD2 gene expression (TAQMAN, Average) in whole blood of donor 175 with 100 IU IFNα2a + MEDI-545; same donor VEH 1.88, IFN alone 126.27 (relative expression (Average)): 8.43
Human leukocyte IFN
  neutralization of overexpression of ISG15, USP18 and IFIT2 in keratinocytes stimulated with 150 I.U./mL leukocyte IFN: 70 to 100%

## R347 (antibody)
IFNα2a (human)
  HERC5 gene expression (TAQMAN, Average) in whole blood of donor 107 with 100 IU IFNα2a + R347 control Ab; same donor VEH 1.00, IFN alone 41.12 (relative expression (Average)): 55
  HERC5 gene expression (TAQMAN, Average) in whole blood of donor 163 with 100 IU IFNα2a + R347 control Ab; same donor VEH 1.05, IFN alone 75.81 (relative expression (Average)): 95.4
  HERC5 gene expression (TAQMAN, Average) in whole blood of donor 175 with 100 IU IFNα2a + R347 control Ab; same donor VEH 1.19, IFN alone 74.58 (relative expression (Average)): 98.2
  IFN α2a-induced IFIT1 gene expression in whole blood (TAQMAN), sample 107 IFN + R347 (107 IFN 80.21; 107 VEH 1.00) (relative expression (Average)): 86.4
  IFN α2a-induced IFIT1 gene expression in whole blood (TAQMAN), sample 163 IFN + R3437 (163 IFN 51.65; 163 VEH 0.92) (relative expression (Average)): 86.6
  IFN α2a-induced IFIT3 gene expression in whole blood (TAQMAN), sample 107 IFN + R347 (107 IFN 38.43; 107 VEH 1.00) (relative expression (Average)): 42.6
  IFN α2a-induced IFIT3 gene expression in whole blood (TAQMAN), sample 163 IFN + R3437 (163 IFN 25.94; 163 VEH 0.62) (relative expression (Average)): 44.8
  IFN α2a-induced IFIT3 gene expression in whole blood (TAQMAN), sample 175 IFN + R347 (175 IFN 35.02; 175 VEH 1.32) (relative expression (Average)): 29.7
  IFN α2a-induced IL6ST gene expression in whole blood (TAQMAN), sample 107 IFN + R347 (107 IFN 3.54; 107 VEH 1.00) (relative expression (Average)): 8.19
  IFN α2a-induced IL6ST gene expression in whole blood (TAQMAN), sample 163 IFN + R3437 (163 IFN 7.69; 163 VEH 2.50) (relative expression (Average)): 13.2
  IFN α2a-induced IL6ST gene expression in whole blood (TAQMAN), sample 175 IFN + R347 (175 IFN 7.62; 175 VEH 1.37) (relative expression (Average)): 23.9
  IFN α2a-induced IRF7 gene expression in whole blood (TAQMAN), sample 107 IFN + R347 (107 IFN 18.53; 107 VEH 1.00) (relative expression (Average)): 19.5
  IFN α2a-induced IRF7 gene expression in whole blood (TAQMAN), sample 163 IFN + R3437 (163 IFN 17.16; 163 VEH 0.91) (relative expression (Average)): 23.3
  IFN α2a-induced IRF7 gene expression in whole blood (TAQMAN), sample 175 IFN + R347 (175 IFN 24.65; 175 VEH 1.25) (relative expression (Average)): 26.3
  IFN α2a-induced LY6E gene expression in whole blood (TAQMAN), sample 107 IFN + R347 (107 IFN 19.09; 107 VEH 1.00) (relative expression (Average)): 12.5
  IFN α2a-induced LY6E gene expression in whole blood (TAQMAN), sample 163 IFN + R3437 (163 IFN 13.52; 163 VEH 1.02) (relative expression (Average)): 22.6
  IFN α2a-induced LY6E gene expression in whole blood (TAQMAN), sample 175 IFN + R347 (175 IFN 19.32; 175 VEH 1.61) (relative expression (Average)): 15.6
  IFN α2a-induced MARCKS gene expression in whole blood (TAQMAN), sample 107 IFN + R347 (107 FN 3.97; 107 VEH 1.00) (relative expression (Average)): 2.99
  IFN α2a-induced MARCKS gene expression in whole blood (TAQMAN), sample 163 IFN + R3437 (163 IFN 2.59; 163 VEH 0.56) (relative expression (Average)): 4.42
  IFN α2a-induced MARCKS gene expression in whole blood (TAQMAN), sample 175 IFN + R347 (175 IFN 2.59; 175 VEH 0.41) (relative expression (Average)): 3.38
  IFN α2a-induced RAB8B gene expression in whole blood (TAQMAN), sample 107 IFN + R347 (107 IFN 3.45; 107 VEH 1.0) (relative expression (Average)): 3.15
  IFN α2a-induced RAB8B gene expression in whole blood (TAQMAN), sample 163 IFN + R3437 (163 IFN 2.20; 163 VEH 0.70) (relative expression (Average)): 3.71
  IFN α2a-induced RAB8B gene expression in whole blood (TAQMAN), sample 175 IFN + R347 (175 IFN 2.63; 175 VEH 0.64) (relative expression (Average)): 2.51
  OAS1 gene expression (TAQMAN, Average) in whole blood of donor 107 with 100 IU IFNα2a + R347 control Ab; same donor VEH 1.00, IFN alone 15.11 (relative expression (Average)): 17.8
  OAS1 gene expression (TAQMAN, Average) in whole blood of donor 163 with 100 IU IFNα2a + R347 control Ab; same donor VEH 0.77, IFN alone 14.19 (relative expression (Average)): 22.4
  OAS1 gene expression (TAQMAN, Average) in whole blood of donor 175 with 100 IU IFNα2a + R347 control Ab; same donor VEH 1.62, IFN alone 22.09 (relative expression (Average)): 15.2
  OAS3 gene expression (TAQMAN, Average) in whole blood of donor 107 with 100 IU IFNα2a + R347 control Ab; same donor VEH 1.00, IFN alone 49.04 (relative expression (Average)): 76.9
  OAS3 gene expression (TAQMAN, Average) in whole blood of donor 163 with 100 IU IFNα2a + R347 control Ab; same donor VEH 0.49, IFN alone 42.01 (relative expression (Average)): 52.6
  OAS3 gene expression (TAQMAN, Average) in whole blood of donor 175 with 100 IU IFNα2a + R347 control Ab; same donor VEH 1.27, IFN alone 37.87 (relative expression (Average)): 34.9
  RSAD2 gene expression (TAQMAN, Average) in whole blood of donor 107 with 100 IU IFNα2a + R347 control Ab; same donor VEH 1.00, IFN alone 109.64 (relative expression (Average)): 107
  RSAD2 gene expression (TAQMAN, Average) in whole blood of donor 163 with 100 IU IFNα2a + R347 control Ab; same donor VEH 0.56, IFN alone 71.47 (relative expression (Average)): 115
  RSAD2 gene expression (TAQMAN, Average) in whole blood of donor 175 with 100 IU IFNα2a + R347 control Ab; same donor VEH 1.88, IFN alone 126.27 (relative expression (Average)): 91
